Like-named read-outs stand apart in the source and are kept apart here.
T1: human RXFP1 (human, UniProt Q9HBX9 1-757)
T1 sequence (looked up): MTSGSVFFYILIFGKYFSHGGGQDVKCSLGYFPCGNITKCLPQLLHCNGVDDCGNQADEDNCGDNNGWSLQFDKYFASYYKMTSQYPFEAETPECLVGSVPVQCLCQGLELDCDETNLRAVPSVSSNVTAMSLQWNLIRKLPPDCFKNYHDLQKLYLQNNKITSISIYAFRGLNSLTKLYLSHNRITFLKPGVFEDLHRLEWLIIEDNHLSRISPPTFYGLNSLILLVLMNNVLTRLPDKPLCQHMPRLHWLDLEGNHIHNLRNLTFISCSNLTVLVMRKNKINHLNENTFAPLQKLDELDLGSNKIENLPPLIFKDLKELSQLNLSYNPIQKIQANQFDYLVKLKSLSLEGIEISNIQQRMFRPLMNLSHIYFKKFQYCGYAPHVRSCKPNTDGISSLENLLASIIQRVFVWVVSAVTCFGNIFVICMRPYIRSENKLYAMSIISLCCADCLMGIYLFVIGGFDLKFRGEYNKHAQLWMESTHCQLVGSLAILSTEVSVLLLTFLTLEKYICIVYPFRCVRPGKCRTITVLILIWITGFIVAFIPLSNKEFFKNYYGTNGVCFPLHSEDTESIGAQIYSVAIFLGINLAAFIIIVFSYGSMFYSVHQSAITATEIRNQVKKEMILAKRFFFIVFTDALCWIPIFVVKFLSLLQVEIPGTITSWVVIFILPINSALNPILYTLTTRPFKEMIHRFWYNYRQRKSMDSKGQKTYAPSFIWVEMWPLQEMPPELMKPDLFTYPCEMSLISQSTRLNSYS

T2: mouse RXFP1 (mouse, UniProt Q6R6I7 1-758)
T2 sequence (looked up): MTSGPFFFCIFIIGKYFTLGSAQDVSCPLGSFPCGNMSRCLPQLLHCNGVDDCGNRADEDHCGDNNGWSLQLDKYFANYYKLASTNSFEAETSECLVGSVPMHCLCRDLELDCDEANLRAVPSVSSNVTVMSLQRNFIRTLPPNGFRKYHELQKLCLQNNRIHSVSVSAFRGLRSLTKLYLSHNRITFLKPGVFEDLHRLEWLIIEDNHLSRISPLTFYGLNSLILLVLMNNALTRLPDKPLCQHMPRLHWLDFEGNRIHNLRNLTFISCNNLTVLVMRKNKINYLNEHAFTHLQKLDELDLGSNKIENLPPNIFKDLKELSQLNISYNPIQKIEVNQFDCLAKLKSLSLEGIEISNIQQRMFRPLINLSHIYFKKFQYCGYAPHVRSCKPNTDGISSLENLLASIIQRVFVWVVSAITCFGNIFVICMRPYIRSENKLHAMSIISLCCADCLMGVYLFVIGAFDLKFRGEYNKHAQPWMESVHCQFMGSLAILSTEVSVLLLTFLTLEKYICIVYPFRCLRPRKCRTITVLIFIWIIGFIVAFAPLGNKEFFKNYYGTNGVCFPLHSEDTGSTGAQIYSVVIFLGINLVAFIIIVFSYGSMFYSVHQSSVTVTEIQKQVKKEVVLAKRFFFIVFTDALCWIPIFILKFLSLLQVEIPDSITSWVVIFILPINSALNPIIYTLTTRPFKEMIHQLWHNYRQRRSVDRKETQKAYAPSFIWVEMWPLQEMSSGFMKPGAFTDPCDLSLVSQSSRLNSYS


How the values were obtained:
Experiment in all cases: cell-based or functional assay
human RXFP2 [1] = biological target: T3, human RXFP2 (human, UniProt Q8WXD0 1-754)
human RXFP1 [2] = biological target: T1, human RXFP1
mouse RXFP1 [3] = biological target: T2, mouse RXFP1
human RXFP2 [4] = biological target: T3, human RXFP2; remark: listed apart in the source
human RXFP1 [5] = biological target: T1, human RXFP1; remark: listed apart in the source
mouse RXFP1 [6] = biological target: T2, mouse RXFP1; remark: listed apart in the source
human RXFP2 [7] = biological target: T3, human RXFP2; remark: listed apart in the source
human RXFP1 [8] = biological target: T1, human RXFP1; remark: listed apart in the source
mouse RXFP1 [9] = biological target: T2, mouse RXFP1; remark: listed apart in the source

T3 sequence (Q8WXD0 whole entry): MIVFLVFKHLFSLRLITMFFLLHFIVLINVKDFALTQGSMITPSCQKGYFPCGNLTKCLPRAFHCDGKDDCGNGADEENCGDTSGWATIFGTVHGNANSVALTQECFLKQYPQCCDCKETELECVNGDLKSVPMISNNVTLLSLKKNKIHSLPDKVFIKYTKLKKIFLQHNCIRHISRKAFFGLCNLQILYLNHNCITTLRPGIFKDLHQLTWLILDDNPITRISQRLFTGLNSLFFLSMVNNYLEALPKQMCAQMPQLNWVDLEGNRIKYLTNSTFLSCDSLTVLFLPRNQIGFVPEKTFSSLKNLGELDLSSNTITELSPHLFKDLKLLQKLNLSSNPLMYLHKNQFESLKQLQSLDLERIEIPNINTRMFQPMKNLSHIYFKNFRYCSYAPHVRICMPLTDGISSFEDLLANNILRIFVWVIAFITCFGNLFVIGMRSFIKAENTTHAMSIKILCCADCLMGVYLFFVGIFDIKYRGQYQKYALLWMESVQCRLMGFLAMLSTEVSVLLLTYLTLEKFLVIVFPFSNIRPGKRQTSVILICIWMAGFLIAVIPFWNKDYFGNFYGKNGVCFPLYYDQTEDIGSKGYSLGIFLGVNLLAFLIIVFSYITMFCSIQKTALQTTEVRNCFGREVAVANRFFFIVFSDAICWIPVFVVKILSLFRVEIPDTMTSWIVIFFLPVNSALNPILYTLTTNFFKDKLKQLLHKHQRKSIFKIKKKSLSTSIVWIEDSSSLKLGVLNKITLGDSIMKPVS

EC50 hRXFP2 (M), cAMP HTRF assay (human RXFP2 [1]) | EC50 hRXFP1 (M), cAMP HTRF assay (human RXFP1 [2]) | EC50 mRXFP1 (M), cAMP HTRF assay (mouse RXFP1 [3]) | EC50 hRXFP2 (M), cAMP HTRF assay (human RXFP2 [4]) | EC50 hRXFP1 (M), cAMP HTRF assay (human RXFP1 [5]) | EC50 mRXFP1 (M), cAMP HTRF assay (mouse RXFP1 [6]) | EC50 hRXFP2 (M), cAMP HTRF assay (human RXFP2 [7]) | EC50 hRXFP1 (M), cAMP HTRF assay (human RXFP1 [8]) | EC50 mRXFP1 (M), cAMP HTRF assay (mouse RXFP1 [9]) | Binder
1.78e-12 M | 4.47e-12 M | 2.37e-12 M | 1.78e-12 M | 4.47e-12 M | 2.37e-12 M | 1.78e-12 M | 4.47e-12 M | 2.37e-12 M | RELAX0014 (ligand) chain 1: MRVSEEWMDGFIRMCGREYARELIKICGASVGR chain 2: ESGGLMSQQCCHVGCSRRSIAKLYC
4.4e-08 M | 5.81e-11 M | 2.24e-11 M | 3.42e-08 M | 3.57e-11 M | 9.1e-12 M | 4.4e-08 M | 5.81e-11 M | 2.24e-11 M | RELAX0019 (Fc fusion) chain 1: GGAGGACPPCPAPEFEGGPSVFLFPPKPKDTLMISRTPEVTCVVVDVSHEDPEVKFNWYVDGVEVHNAKTKPREEQYNSTYRVVSVLTVLHQDWLNGKEYKCKVSNKALPASIEKTISKAKGQPREPQVYTLPPCREEMTKNQVSLWCLVKGFYPSDIAVEWESNGQPENNYKTTPPVLDSDGSFFLYSKLTVDKSRWQQGNVFSCSVMHEALHNHYTQKSLSLSPGGGGGSGGGGSGGGGSGGGGGSQLYSALANKCCHVGCTKRSLARFC chain 2: GGAGGACPPCPAPEFEGGPSVFLFPPKPKDTLMISRTPEVTCVVVDVSHEDPEVKFNWYVDGVEVHNAKTKPREEQYNSTYRVVSVLTVLHQDWLNGKEYKCKVSNKALPASIEKTISKAKGQPREPQVCTLPPSREEMTKNQVSLSCAVKGFYPSDIAVEWESNGQPENNYKTTPPVLDSDGSFFLVSKLTVDKSRWQQGNVFSCSVMHEALHNHYTQKSLSLSPGGGGGSGGGGSGGGGSGGGGGSSWMEEVIKLCGRELVRAQIAICGMSTWS
1.75e-09 M | 1.15e-12 M | 7.54e-13 M | 1.75e-09 M | 1.15e-12 M | 7.54e-13 M | 1.75e-09 M | 1.15e-12 M | 7.54e-13 M | RELAX0013 (ligand) chain 1: DSWMEEVIKLCGRELVRAQIAICGMSTWS chain 2: QLYSALANKCCHVGCTKRSLARFC

Source: US20250295737A1 (AstraZeneca / MedImmune, published 2025)
